Data set [1] has as its target T1, BFL1ΔC L21A, Q16548.
T1 chain: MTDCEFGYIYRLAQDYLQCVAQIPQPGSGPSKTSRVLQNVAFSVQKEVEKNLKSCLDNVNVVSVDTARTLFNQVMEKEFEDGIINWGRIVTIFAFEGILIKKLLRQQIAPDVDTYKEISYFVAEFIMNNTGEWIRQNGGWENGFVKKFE
The data set can be described thus: FCCS. Particulars: chain shown with the change; 100% CL GUV; parent: est. 37; read off a plot.

For data set [2], the target named is T1, BFL1ΔC L21A, Q16548. The data set can be described thus: TIRF single-molecule brightness analysis. Particulars: chain shown with the change, 100% CL SLB, 0.5 nM BFL1∆Cg proteins, 1 h at room temperature, read off a plot.
For data set [3], the target named is T2, BFL1ΔC R88D, Q16548.
T2 chain: T1 chain with A21L, R88D
Description: FCCS. Conditions: chain shown with the change; 100% CL GUV; parent: est. 37; read off a plot.

In data set [4] the target is T2, BFL1ΔC R88D, Q16548. Description: TIRF single-molecule brightness analysis. Particulars: chain shown with the change, 100% CL SLB, 0.5 nM BFL1∆Cg proteins, 1 h at room temperature, read off a plot.
Data set [5] deals with the molecule itself. The data set can be described thus: single-molecule TIRF brightness analysis; BFL1ΔCg 0.5 nM incubated with LUV 1 h at room temperature, supported lipid bilayers; apoptotic-like membranes.
Data set [6] deals with the molecule itself. Description: SEC; protein in the presence of 100%CL LUV. A general note: SEC sorts molecules by how far they enter the pores of the column.

Numbering of substitutions follows the chain as printed. Numbers in names are those of the source.

B1: BFL1ΔC (BFL1 lacking the C-terminal 24 residues, helix α9), Q16548 L21A (protein)
chain: T1 chain
With B1, the other: %CC (cross-correlation, FCCS) in data set [1] was determined as 22%. Also, the other: occurrence of monomers (%) in data set [2] (parent: est. 26) came out at 41%. Further, the other: occurrence of dimers (%) in data set [2] (parent: est. 73) came out at 57%.

B2: BFL1ΔC (BFL1 lacking the C-terminal 24 residues, helix α9), Q16548 R88D (protein)
chain: T1 chain with A21L, R88D
Regarding B2, the other: %CC (cross-correlation, FCCS) in data set [3] came out at 35%. Also, in data set [4] (parent: est. 26), the other: occurrence of monomers (%) turned out to be 27%. The other: occurrence of dimers (%) in data set [4] (parent: est. 73) amounted to 71%.

B3: BFL1ΔC (BFL1 lacking the C-terminal 24 residues, helix α9) (domain or fragment)
chain: T1 chain with A21L
modifications: Alexa 488 (BFL1ΔCg) or Alexa 647 (BFL1ΔCr) label in FCCS, TIRF and GUV imaging, site not stated; unlabelled in SEC
notes: BFL1 (BCL2A1) lacking the C-terminal 24 residues (helix α9, TA motif); Expressed from the vector pNIC28-Bsa4; Labelled (g, r) and unlabelled forms of the same construct are kept as one molecule; the assay's format tells which was used; also called BFL1ΔCg; BFL1ΔCr
As for B3, the stoichiometry N – broadly, the number of molecules, sites or subunits per partner or assembly – in data set [5] was 2.

B4: BFL1ΔC R88D (domain or fragment)
chain: T1 chain with A21L, R88D
modifications: Alexa 488 (g) or Alexa 647 (r) label in FCCS, site not stated; unlabelled in SEC and in the GUV retrotranslocation assay
notes: Same construct as m1 with one point mutation; also called BFL1ΔCg R88D; BFL1ΔCr R88D
With B4, in data set [6], the binding result was “binds”.

The values above are taken from article PMC6748131, “BFL1 modulates apoptosis at the membrane level through a bifunctional and multimodal mechanism showing key differences with BCLXL” (Cell Death and Differentiation, 2018).
